The assay concerns the target CD25 (human) (UniProt P01589). The assay is described as follows: flow cytometry on Karpas299 cells (surface CD25); negative control antibody.

Sequence of CD25 (human) (P01589 22-272): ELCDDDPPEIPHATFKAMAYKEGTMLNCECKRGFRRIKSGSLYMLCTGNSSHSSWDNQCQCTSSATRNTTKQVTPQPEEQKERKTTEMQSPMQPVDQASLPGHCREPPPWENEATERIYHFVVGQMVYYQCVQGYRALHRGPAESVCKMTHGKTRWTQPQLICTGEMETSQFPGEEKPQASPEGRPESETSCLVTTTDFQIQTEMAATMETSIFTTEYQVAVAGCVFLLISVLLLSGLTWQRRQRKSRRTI

B12 anti-HIV gp120 antibody: the EC50 turned out to be 537 µg/mL.

The values are drawn from patent US20150283263A1.
